The values that follow come from patent US20220313840A1 (ACADEMIA SINICA, published 2022).

The target in test [1] is T1, endogenous EGFR on human carcinoma cell lines (human, UniProt P00533 25-1210).
T1 construct: whole, on cells; EGFR expression of the cell lines was checked by Western blotting; also called endogenous cellular EGFR; EGFR on FaDu and Ca9-22 cells
Description: cell ELISA on human carcinoma cell lines with endogenous EGFR. For orientation: An ELISA detects its analyte on a solid surface through an enzyme-linked reagent.

In test [2] the target is T1, endogenous EGFR on human carcinoma cell …. In words: confocal microscopy of FaDu and Ca9-22 cells, anti-FLAG detection. As for the experimental part: We produced soluble scFv from EGFR-PC10 and designated it as EGFR-s10. Target binding and internalization are essential requirements of LTL-targeting moieties. We investigated these features of EGFR-s10 in SCCHN cancer cell lines. FaDu cells and Ca9-22 cells were separately incubated with EGFR-sl0 at 4° C. or 37° C. for 30 min and compared with isotypic IgG controls. EGFR-sl0 bound to the cell membrane of FaDu and Ca9-22 cells at 4° C. […] (FIGS. 3A-B).

Test [3] has the same target. In words: cell uptake, including EGFR-knockdown cells. The procedure:
To evaluate whether internalization and targeting were preserved after EGFR-s10 ligation to liposomes, we tested EGFR-s10-conjugated liposomal SRB in the SCCHN cell lines FaDu and Ca9-22 cells at 37° C. for 30 min (FIGS. 3C-D). No compromise of internalization capacity was discernable in either cell line compared to the previous soluble EGFR-s10.

B1: EGFR-PC10 phage clone (phage-displayed human anti-EGFR scFv) (scFv)
scFv: EVQLVESGGGLVQPGGSLRLSCAASGFNLSSFWMSWVRQAPGKGLEWVANINHDGSDKYYVDSVKGRFSISRDNTKNSVYLQMDSLRGEDTAVYYCAKGKSLYDGSALDMWGQGTMVTVSSGGGGSGGGGSGGGGSDIVMTQSPSTLSASVGDRVTITCRASQTIGRWLAWYQQKPGKAPKLLIYGASSLQSGVPSRFSGSGSGTDFTLTISSLQPEDFATYYCQQSYSTLWTFGQGTKLEIKR
notes: Tested as whole phage particles displaying the scFv, detected with anti-M13 antibody; also called EFGR-PC10 phage; not shown: phage coat protein fusion of the M13 display system; not described
In the case of B1, in test [1], the binding result is “binds”.

B2: EGFR-s10 scFv (soluble scFv generated from phage clone EGFR-PC10) (scFv)
scFv: B1 scFv
notes: Expressed in E. coli HB2151 from the pFHC vector; also called EGFR-sl0; soluble anti-EGFR human scFv; not shown: flag, 6xHis and cysteine tag from the pFHC vector
As for B2, in test [2], the binding result was “binds”.

B3: EGFR-s10-conjugated ligand-targeting liposomes (LTLs) (other)
scFv: B1 scFv
modifications: reduced cysteine of the tag conjugated to Maleimide-PEG-DSPE inserted in a PEGylated liposome loaded with doxorubicin or vinorelbine
notes: also called EGFR-s10-LD; EGFR-s10-LV; not shown: flag, 6xHis and cysteine tag from the pFHC vector
Take B3: the binding result in test [3] is recorded as “binds”.
